# Measurements taken from patent publication US10494415B2, “Insulin-like growth factor 2 (IGF2) binding agents” (Cancer Research Technology Limited, priority 2015, dated 2019).
# Positions count from the first letter of the chain named. Numbers in names are those of the source.
# B1: AB5 + 51F (HI-NRQS): domain 11 AB5 with HI loop NRQS (clone 51F) (protein)
# chain: MKSNEHDDCQVTNPSTGHLFDLSSLSGRAGFTAAYAKGWGVYMSICGENENCPPGVGACFGQTRISVGKANKRLRYVDQVLQLVYKDGSPCPSKSGLSYKSVISFVCRPEAGPTNRPMLISLNRQSCTLFFSWHTPLACEQATECSV
# B2: AB3 P1597H: domain 11 AB3 + FG loop P1597H (protein)
# chain: B1 chain with A36S, G38S, W39G, G40V, P90H, N123D, R124K, S126T
# B3: AB3 Q1569R: domain 11 AB3 + CD loop Q1569R (protein)
# chain: B1 chain with A36S, G38S, W39G, G40V, Q62R, N123D, R124K, S126T
# B4: AB3 P1597K: domain 11 AB3 + FG loop P1597K (protein)
# chain: B1 chain with A36S, G38S, W39G, G40V, P90K, N123D, R124K, S126T
# B5: AB3 Q1569R P1597H: domain 11 AB3 + Q1569R, P1597H (protein)
# chain: B1 chain with A36S, G38S, W39G, G40V, Q62R, P90H, N123D, R124K, S126T
# B6: AB3 Q1569R P1597K: domain 11 AB3 + Q1569R, P1597K (protein)
# chain: B1 chain with A36S, G38S, W39G, G40V, Q62R, P90K, N123D, R124K, S126T
# B7: AB3 P1597H K1631W: domain 11 AB3 + P1597H, K1631W (protein)
# chain: B1 chain with A36S, G38S, W39G, G40V, P90H, N123D, R124W, S126T
# B8: AB3 P1597H HI^23D: domain 11 AB3 + P1597H + HI loop of clone 23D (HFQS) (protein)
# chain: B1 chain with A36S, G38S, W39G, G40V, P90H, N123H, R124F
# B9: AB3 P1597K S1602H: domain 11 AB3 + P1597K, S1602H (protein)
# chain: B1 chain with A36S, G38S, W39G, G40V, P90K, S95H, N123D, R124K, S126T
# B10: AB3 Q1569R P1597H S1602H: domain 11 AB3 + Q1569R, P1597H, S1602H (protein)
# chain: B1 chain with A36S, G38S, W39G, G40V, Q62R, P90H, S95H, N123D, R124K, S126T
# B11: AB3 Q1569R P1597K S1602H: domain 11 AB3 + Q1569R, P1597K, S1602H (protein)
# chain: B1 chain with A36S, G38S, W39G, G40V, Q62R, P90K, S95H, N123D, R124K, S126T
# B12: AB3 Q1569R P1597K S1602H G1603K: domain 11 AB3 + Q1569R, P1597K, S1602H, G1603K (protein)
# chain: MKSNEHDDCQVTNPSTGHLFDLSSLSGRAGFTAAYSKSGVVYMSICGENENCPPGVGACFGRTRISVGKANKRLRYVDQVLQLVYKDGSKCPSKHKLSYKSVISFVCRPEAGPTNRPMLISLDKQTCTLFFSWHTPLACEQATECSV
# B13: AB5 Q1569R: domain 11 AB5 + CD loop Q1569R (protein)
# chain: B1 chain with Q62R, N123D, R124K, S126T
# B14: AB5 P1597H: domain 11 AB5 + P1597H (protein)
# chain: B1 chain with P90H, N123D, R124K, S126T
# B15: AB5 P1597A: domain 11 AB5 + P1597A (protein)
# chain: B1 chain with P90A, N123D, R124K, S126T
# B16: AB5 P1597K: domain 11 AB5 + P1597K (protein)
# chain: B1 chain with P90K, N123D, R124K, S126T
# B17: AB5 P1597L: domain 11 AB5 + P1597L (protein)
# chain: B1 chain with P90L, N123D, R124K, S126T
# B18: AB5 P1597N: domain 11 AB5 + P1597N (protein)
# chain: B1 chain with P90N, N123D, R124K, S126T
# B19: AB5 P1597Q: domain 11 AB5 + P1597Q (protein)
# chain: B1 chain with P90Q, N123D, R124K, S126T
# B20: AB5 P1597S: domain 11 AB5 + P1597S (protein)
# chain: B1 chain with P90S, N123D, R124K, S126T
# B21: AB5 HI^23D: domain 11 AB5 + HI loop of clone 23D (HFQS) (protein)
# chain: B1 chain with N123H, R124F
# B22: AB5 Q1569R P1597H: domain 11 AB5 + Q1569R, P1597H (protein)
# chain: B1 chain with Q62R, P90H, N123D, R124K, S126T
# B23: AB5 Q1569R P1597K: domain 11 AB5 + Q1569R, P1597K (protein)
# chain: B1 chain with Q62R, P90K, N123D, R124K, S126T
# B24: AB5 P1597H S1602H: domain 11 AB5 + P1597H, S1602H (protein)
# chain: B1 chain with P90H, S95H, N123D, R124K, S126T
# B25: AB5 P1597K S1602H: domain 11 AB5 + P1597K, S1602H (protein)
# chain: B1 chain with P90K, S95H, N123D, R124K, S126T
# B26: AB5 Q1569R P1597K S1602H: domain 11 AB5 + Q1569R, P1597K, S1602H (protein)
# chain: B12 chain with S36A, S38G, G39W, V40G, K96G
# Molecular target: IGF2 (Homo sapiens, UniProt P01344)
# Sequence (P01344 25-91): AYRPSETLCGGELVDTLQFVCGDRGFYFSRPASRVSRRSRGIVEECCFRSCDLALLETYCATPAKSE
# Assay: SPR (Biacore T200) of recombinant IGF2R domain 11 mutants on immobilised biotinylated IGF2
# Format: binding
# Design: purchased GroPep
# Settings: Table 2
# Source text: Surface plasmon resonance (SPR) binding analysis of recombinant M6P/IGF2R domain 11 mutants interaction with IGF2. Kon indicates association (on) rate; koff, dissociation (off) rate; RU, response units. Binding to IGF2 assessed with BIAcore T200 using purified biotinylated IGF2 and IGF1 on a streptavidin biosensor chip. Recombinant proteins were expressed either in E. coli and/or P. pastoris. All the mutants in the FG and CD loops are on the domain 11^AB5 background for the AB loop unless otherwise stated. All experiments were carried out at 25° C. in HBS-EP buffer (pH 7.4), were repeated 2-5 times on two independent BIAcore chips. nd=not determined. Data for KD expressed as mean of each experiment, and means of kon and koff are shown.
# Measurements were carried out at 25° C. in HBS-EP buffer (pH 7.4) (nd=not determined, np=no protein). Data for KD expressed as mean of each experiment, and means of kon and koff are shown.
# Measurements were carried out at 25° C. in MES-EP buffer, 20 mM MES pH 6.5, 150 mM NaCl, 3 mM EDTA, and 0.005% (v/v) surfactant P20). Data for KD expressed as mean of each experiment, and means of kon and koff are shown.
# Final kinetic analysis of mutants by SPR was conducted using a Biacore T200 biosensor at 25° C. in either HBS-EP (10 mM HEPES pH 7.4, 150 mM NaCl, 3 mM EDTA, and 0.005% (v/v) surfactant P20) or MES-EP (20 mM MES pH 6.5, 150 mM NaCl, 3 mM EDTA, and 0.005% (v/v) surfactant P20) at a flow-rate of 40 μL min^−1. […] For the analysis of the Fc-domain 11^AB5 interaction, approximately 50 RU of a biotinylated IGF2:biotinylated ubiquitin mixture (1:8 proportion) was immobilized on the CM5-streptavidin chip. This interaction was also analysed by immobilizing the Fc-domain 11^AB5 and Fc-domain 11^AB5-RHH (or Fc-domain 11^I1572A as control) by Human Antibody Capture (monoclonal mouse anti-human IgG antibody immobilised on a CM5 chip by amine coupling, GE Healthcare) with and without human IgG1 Fc fragment (Bethyl Laboratories, UK) in the control flow cell. Increasing concentrations of IGF2^1-67, proIGF2^1-104, proIGF2^1-156 and IGF1 ranging from 0.125 to 32 nM were injected. T200 BiaEvaluation software (GE Healthcare) was used to fit the resulting curves according to a 1:1 binding model. Steady state affinities were determined using the kinetic data, taking the response average at 5 seconds before injection end and for 5 seconds average. Thermodynamic data was performed across the temperature range of 10° C. to 30° C., van't Hoff and Erying plots generated and ΔH, −TΔS and ΔG values determined as previously described.
Molecule,Kinetics koff,Kinetics kon
B1,0.10 s⁻¹,7.4e+06 M⁻¹ s⁻¹
B2,0.013 s⁻¹,1.06e+07 M⁻¹ s⁻¹
B3,0.031 s⁻¹,1.36e+07 M⁻¹ s⁻¹

# Same assay, conditions: Table 3; 25° C., HBS-EP pH 7.4
Molecule,Kinetics koff,Kinetics kon
B2,0.013 s⁻¹,1.06e+07 M⁻¹ s⁻¹
B3,0.031 s⁻¹,1.36e+07 M⁻¹ s⁻¹
B4,0.0287 s⁻¹,1.05e+07 M⁻¹ s⁻¹
B5,0.0153 s⁻¹,1.89e+07 M⁻¹ s⁻¹
B6,0.0241 s⁻¹,2e+07 M⁻¹ s⁻¹
B7,0.3478 s⁻¹,1.97e+07 M⁻¹ s⁻¹
B8,0.012 s⁻¹,–
B9,0.0102 s⁻¹,2.74e+06 M⁻¹ s⁻¹
B10,0.010 s⁻¹,1.41e+07 M⁻¹ s⁻¹
B11,0.016 s⁻¹,2.01e+07 M⁻¹ s⁻¹
B12,0.0171 s⁻¹,2.08e+07 M⁻¹ s⁻¹
B13,0.0175 s⁻¹,8.04e+06 M⁻¹ s⁻¹
B14,0.0070 s⁻¹,3.68e+06 M⁻¹ s⁻¹
B15,0.0174 s⁻¹,1.9e+06 M⁻¹ s⁻¹
B16,0.0120 s⁻¹,9.54e+06 M⁻¹ s⁻¹
B17,0.0150 s⁻¹,4.18e+06 M⁻¹ s⁻¹
B18,0.0180 s⁻¹,4.72e+06 M⁻¹ s⁻¹
B19,0.0203 s⁻¹,6.53e+06 M⁻¹ s⁻¹
B20,0.0193 s⁻¹,5e+06 M⁻¹ s⁻¹
B21,0.012 s⁻¹,–
B22,0.0058 s⁻¹,3.2e+06 M⁻¹ s⁻¹
B23,0.0091 s⁻¹,9.59e+06 M⁻¹ s⁻¹
B24,0.0046 s⁻¹,3.5e+06 M⁻¹ s⁻¹
B25,0.0096 s⁻¹,2.09e+06 M⁻¹ s⁻¹
B26,0.0073 s⁻¹,7.87e+06 M⁻¹ s⁻¹

# Same assay, conditions: Table 4; MES-EP pH 6.5
Molecule,Kinetics koff,Kinetics kon
B5,0.0091 s⁻¹,1.99e+07 M⁻¹ s⁻¹
B10,0.0064 s⁻¹,1.61e+07 M⁻¹ s⁻¹
B22,0.0034 s⁻¹,2.37e+06 M⁻¹ s⁻¹
B24,0.0029 s⁻¹,5.32e+06 M⁻¹ s⁻¹
